The target of this assay is T1, MPER-TM(654-709) polypeptide (HIV-1, UniProt P04578).
T1 construct: also called MPER-TMD polypeptide; MPER-TMD construct
In words: flow cytometry on cells; stable HEK293T cells expressing the antigen; 10^6 cells; Fab-mVenus variants at 2 μg/mL, 30 min, RT, FACS buffer (PBS, 0.1% FBS); mVenus fluorescence read; Env cells with or without preincubation with Ig-mD1.22 (20 μg/mL, 30 min). The conditions noted are these: one partner purified. Background: In flow cytometry, cells or beads pass a laser one at a time.

We go through two molecules from article PMC11551957 (ACS Applied Materials & Interfaces, 2024).

B1: 10E8 Fab-mVenus S65C conjugated with Fus4 (Fab, V domains shown)
VH: EVQLVESGGGLVKPGGSLRLSCSASGFDFDNAWMTWVRQPPGKGLEWVGRITGPGEGWSVDYAAPVEGRFTISRLNSINFLYLEMNNLRMEDSGLYFCARTGKYYDFWSGYPPGEEYFQDWGRGTLVTVSS
VL: SYELTQETGVSVALGRTVTITCRGDSLRSHYASWYQKKPGQAPILLFYGKNNRPSGVPDRFSGCASGNRASLTISGAQAEDDAEYYCSSRDKSGSRLSVFGGGTKLTVL
B1: the binding result is recorded as “binds”.

B2: 10E8 Fab-mVenus S65C conjugated with Lin3 (Fab, V domains shown)
VH: B1 VH
VL: B1 VL
As to B2, the binding result was “binds”.
